For this series the following is noted: Enterobacteria phage fd; pH 7; 25 °C; GdnHCl; CD; MOPS 50 mM; NaCl 100 mM; reversible: yes; whole UniProt chain shown.

B1: DNA-Binding protein G5P wild type, P69542 (protein)
chain: MIKVEIKPSQAQFTTRSGVSRQGKPYSLNEQLCYVDLGNEYPVLVKITLDEGQPAYAPGLYTVHLSSFKVGQFGSLMIDRLRLVPAK
On to B1, for which the unfolding free energy worked out at 37.7 kJ/mol.
